Measurements taken from PMC7397744.

Assay: crystallisation trials
Details: glycan lost; control: wild type

B1: human lysosomal acid lipase (HLAL): enzymatically deglycosylated (protein)
parent chain: MKMRFLGLVVCLVLWTLHSEGSGGKLTAVDPETNMNVSEIISYWGFPSEEYLVETEDGYILCLNRIPHGRKNHSDKGPKPVVFLQHGLLADSSNWVTNLANSSLGFILADAGFDVWMGNSRGNTWSRKHKTLSVSQDEFWAFSYDEMAKYDLPASINFILNKTGQEQVYYVGHSQGTTIGFIAFSQIPELAKRIKMFFALGPVASVAFCTSPMAKLGRLPDHLIKDLFGDKEFLPQSAFLKWLGTHVCTHVILKELCGNLCFLLCGFNERNLNMSRVDVYTTHSPAGTSVQNMLHWSQAVKFQKFQAFDWGSSAKNYFHYNQSYPPTYNVKDMLVPTAVWSGGHDWLADVYDVNILLTQITNLVFHESIPEWEHLDFIWGLDAPWRLYNKIINLMRKYQ
other: crystallisability: no change
